Data taken from patent US20170015742A1 (published 2017).
Numbering of substitutions follows the chain as printed. Names and notes keep the numbering of the source.

How the values were obtained:
[1] = biological target: T1, recombinant human VEGF165 (human, UniProt P15692 207-395); assay: SPR (Biacore), antibody captured by anti-human Fc, hVEGF165 in solution
T1 construct: also called hVEGF165
Description: Unreacted moieties on the biosensor surface were blocked with ethanolamine. For kinetic analysis, rate equations derived from the 1:1 Langmuir binding model were fitted simultaneously to multiple antigen injections (using global fit analysis) with the use of Scrubber 2 (BioLogic Software), Biacore Biaevaluation 4.0.1 software or Biacore T100 Evaluation software. Purified antibodies or DVD-Ig molecules were diluted in running buffer for capture across goat anti-human Fc reaction surfaces. Antibodies or DVD-Ig molecules to be captured as a ligand (1 μg/ml) were injected over reaction matrices at a flow rate of 10 μl/minute. During the assay, all measurements were referenced against the capture surface alone (i.e., with no captured antibody or DVD-Ig molecule). […] The equilibrium dissociation constant KD (M) of the reaction between antibodies and the target antigen was then calculated from the kinetic rate constants by the following formula: KD=Koff/Kₒₙ. Binding was recorded as a function of time and kinetic rate constants were calculated. In this assay, on-rates as fast as 10⁶M⁻¹s⁻¹ and off-rates as slow as 10⁻⁶ s⁻¹ could be measured.
Affinity matured humanized anti-VEGF antibodies were characterized for hVEGF₁₆₅ binding and potency. Binding affinity of these molecules to hVEGF₁₆₅ was determined by Biacore analysis (Example 1.1). Potency was evaluated in both cell-based and ELISA formats. The ability to block binding of hVEGF₁₆₅ to hVEGFR2 was evaluated in a competition ELISA (Example 1.4) Inhibition of hVEGF₁₆₅-induced cell proliferation was assessed using HMVEC-d cells (Example 1.10).

Human VEGF-A 165 = Human VEGF-A 165 (human, UniProt P15692 207-395); assay: cell-based or functional assay
Sequence of Human VEGF-A 165 (P15692 other isoform, or with tags, fused parts or gaps limits assumed): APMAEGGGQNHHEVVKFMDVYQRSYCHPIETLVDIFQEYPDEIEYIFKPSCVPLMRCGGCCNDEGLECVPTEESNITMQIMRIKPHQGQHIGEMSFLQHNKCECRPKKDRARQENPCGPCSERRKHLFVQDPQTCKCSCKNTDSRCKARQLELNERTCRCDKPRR

VEGF-A = VEGF-A (UniProt P15692-4 27-191, limits assumed); assay: SPR (Biacore), DVD-Ig captured by anti-human Fc, antigen injected
Sequence of VEGF-A (P15692 other isoform, or with tags, fused parts or gaps limits assumed): as above
How it was run: (§1)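 Antibodies or DVD-Ig molecules (1 μg/ml) were captured on an anti-human Fc CM5 surface, with antigen injected in solution and responses referenced to the capture-only surface. Rate constants came from a global 1:1 Langmuir fit, and KD = koff/kon.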

PDGF-BB = PDGF-BB (UniProt P01127 82-190); assay: as above
Sequence of PDGF-BB (P01127 82-190): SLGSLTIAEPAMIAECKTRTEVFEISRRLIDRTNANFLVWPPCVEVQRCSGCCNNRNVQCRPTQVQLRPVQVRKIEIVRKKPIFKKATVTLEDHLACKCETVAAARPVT
How it was run: as §1

T1 sequence (P15692 other isoform, or with tags, fused parts or gaps limits assumed): as the sequence (P15692 other isoform, or with tags, fused parts or gaps limits assumed) above

B1: CL-28815-IgG (EI version of parent mAb) (antibody, V domains shown)
VH: EVQLVQSGSELKKPGASVKVSCKASGYTFTNYGMYWVRQAPGQGLEWMGWINTETGKPTYADDFKGRFVFSLDTSVSTAYLQISSLKAEDTAVYYCARTNYYYRSYIFYFDYWGQGTMVTVSS
VL: EIVLTQSPATLSLSPGERATLSCRASESVSTHMHWYQQKPGQAPRLLIYGASNLESGVPARFSGSGSGTDFTLTISSLEPEDFAVYFCQQSWNDPFTFGQGTKLEIK
notes: IgG format
Kd [1]: 0.012 nM
kon [1]: 9.2e+06 M⁻¹ s⁻¹

B2: hBEW-5C3.1 (antibody, V domains shown)
VH: EIQLVQSGSELKKPGASVKVSCKASGYTFTNYGVYWVKQAPGQGLEYMGWINTETGKPTYADDFKGRFVFSLDTSVSTAYLQISSLKAEDTAVYYCARARQLDWFVYWGQGTLVTVSS
VL: DTVLTQSPATLSLSPGERATLSCRARESLTTSLSWFQQKPGQQPRLLIYGASKLESGVPARFSGSGSGTDFTLTISSLEPEDFAVYFCQQSWYDPPTFGGGTKVEIK
hVEGF165 IC50 (nM), HMVEC-d proliferation (Human VEGF-A 165): 0.071 nM

B3: hBEW-5C3.2 (antibody, V domains shown)
VH: EIQLVQSGAEVKKPGSSVKVSCKASGYTFTNYGVYWVKQAPGQGLEYMGWINTETGKPTYADDFKGRFTFTLDKSTSTAYMELSSLRSEDTAVYFCARARQLDWFVYWGQGTLVTVSS
VL: B2 VL
hVEGF165 IC50 (nM), HMVEC-d proliferation (Human VEGF-A 165): 0.162 nM

B4: 3E2.1_GS_1E3.4 (PR-1613190) (bispecific antibody, human IgG1, kappa, L234A L235A)
heavy: EVQLVQSGAEVKKPGSSVKVSCKASGYTFTESYMYWVKQAPGQGLELIGRIDPEDGSTDYVEKFKNKATLTADKSTSTAYMELSSLRSEDTAVYFCARFGARSYFYPMDAWGQGTTVTVSSGGGGSGGGGSEIQLVQSGSELKKPGASVKVSCKASGYPFTNSGMYWVKQAPGQGLEYMGWINTEAGKPTYADDFKGRFVFSLDTSVSTAYLQISSLKAEDTAVYFCARWGYISDNSYGWFDYWGQGTLVTVSSASTKGPSVFPLAPSSKSTSGGTAALGCLVKDYFPEPVTVSWNSGALTSGVHTFPAVLQSSGLYSLSSVVTVPSSSLGTQTYICNVNHKPSNTKVDKKVEPKSCDKTHTCPPCPAPEAAGGPSVFLFPPKPKDTLMISRTPEVTCVVVDVSHEDPEVKFNWYVDGVEVHNAKTKPREEQYNSTYRVVSVLTVLHQDWLNGKEYKCKVSNKALPAPIEKTISKAKGQPREPQVYTLPPSREEMTKNQVSLTCLVKGFYPSDIAVEWESNGQPENNYKTTPPVLDSDGSFFLYSKLTVDKSRWQQGNVFSCSVMHEALHNAYTQKSLSLSPGK
light: ETVLTQSPATLSLSPGERATLSCRASESVSTLMHWYQQKPGQQPRLLIYGASNLESGVPARFSGSGSGTDFTLTISSLEPEDFAVYFCQQSWNDPWTFGGGTKVEIKGGSGGGGSGGATQLTQSPSSLSASVGDRVTISCRASEGVYSYMHWYQQKPGKQPKLLIYKASNLASGVPSRFSGSGSGTDFTLTISSLQPEDFATYFCHQNWNDPLTFGQGTKLEIKRTVAAPSVFIFPPSDEQLKSGTASVVCLLNNFYPREAKVQWKVDNALQSGNSQESVTEQDSKDSTYSLSSTLTLSKADYEKHKVYACEVTHQGLSSPVTKSFNRGEC
notes: DVD-Ig: outer hBFU-3E2.1 (PDGF), inner hBEW-1E3.4 (VEGF), linkers GS-H10 / GS-L10(dR); Human IgG1 L234A, L235A, H435A with kappa light chain
Kd (VEGF-A): 0.26 nM
kon (VEGF-A): 360000 M⁻¹ s⁻¹
Kd (PDGF-BB): ≤ 0.0053 nM
kon (PDGF-BB): ≥ 9e+07 M⁻¹ s⁻¹

B5: hBEW-1B10.1 (antibody, V domains shown)
VH: EVQLVESGGGLVQPGGSLRLSCAASGFSFSKYDMAWFRQAPGKGLEWVASITTSGVGTYYRDSVKGRFTVSRDNAKSTLYLQMNSLRAEDTAVYYCARGYGAMDAWGQGTTVTVSS
VL: DIQMTQSPSSLSASVGDRVTITCKASQDIDDYLSWYQQKPGKSPKLVIYAATRLADGVPSRFSGSGSGTDYTLTISSLQPEDFATYYCLQSSSTPWTFGGGTKVEIK
hVEGF165 IC50 (nM), HMVEC-d proliferation (Human VEGF-A 165): 0.168 nM

B6: hBEW-1B10.2 (antibody, V domains shown)
VH: B5 VH with S77N, T78S
VL: B5 VL
hVEGF165 IC50 (nM), HMVEC-d proliferation (Human VEGF-A 165): 0.222 nM

B7: hBEW-1E3.3 (antibody, V domains shown)
VH: EVQLVQSGAEVKKPGASVKVSCKASGYPFTNSGMYWVRQAPGQGLEWMGWINTEAGKPTYADDFKGRFTFTLDTSTSTAYLEIRSLRSDDTAVYYCARWGYISDNSYGWFDYWGQGTLVTVSS
VL: ETVLTQSPATLSLSPGERATLSCRASEGVYSYMHWYQQKPGQQPRLLIYKASNLASGVPARFSGSGSGTDFTLTISSLEPEDFAVYFCHQNWNDPLTFGQGTKLEIK
hVEGF165 IC50 (nM), HMVEC-d proliferation (Human VEGF-A 165): 0.205 nM
